From FireProtDB (doi:10.1002/pro.5560031114)
Several values for one entry are separate records, joined by “and”; a condition that tells them apart may be missing. Equal entries are not always repeated.

Details: Escherichia coli, pH 7, Thermal, DSC, Na phosphate 100 mM, NaCl 200 mM, reversible: yes, whole UniProt chain shown

B1: Regulatory protein rop wild type, P03051 (protein)
chain: MTKQEKTALNMARFIRSQTLTLLEKLNELDADEQADICESLHDHADELYRSCLARFGDDGENL
unfolding free energy (74.6 °C): 3.1 kcal/mol and 5.6 kcal/mol
unfolding enthalpy (calorimetric): 114 kcal/mol and 83.1 kcal/mol and 94.3 kcal/mol
unfolding enthalpy (van 't Hoff): 132 kcal/mol and 79.8 kcal/mol and 104 kcal/mol
